As a reminder, the EC50 is the concentration giving half of the maximal effect. As usually defined, the Kd is a measure of binding affinity in units of concentration. By koff is commonly meant a measure of how fast the partners let go of each other. A word on the kon: it is a measure of how fast the partners come together.

The values that follow come from EP4674868A1 (Jiangsu Hengrui Pharmaceuticals Co., Ltd., dated 2026).

Assay [1] concerns the target T1, human 4-1BB on the surface of HEK293 cells (HEK293-Hu4-1BB) (human, UniProt Q07011 24-255). Kind of assay: cell-based or functional assay.
For assay [2], the target named is T1, human 4-1BB on the surface of HEK293 …. Kind of assay: cell-based or functional assay. The source holds these as a separate data set.
Assay [3] has the same target. Kind of assay: cell-based or functional assay. The source holds these as a separate data set.
For assay [4], the target named is T2, human CD40 on the surface of HEK293 cells (HEK293-HuCD40) (human, UniProt P25942 21-277). Kind of assay: cell-based or functional assay.
Assay [5] addresses T2, human CD40 on the surface of HEK293 …. Kind of assay: cell-based or functional assay. This is another data set of the same source.
The target of assay [6] is T3, human FAP on the surface of CHO-K1 cells (CHO-K1-HuFAP) (human, UniProt Q12884 1-760).
T3 construct: whole, on cells; also called CHO cell line overexpressing human FAP; FAP on the surface of CHO-K1-HuFAP cells
Kind of assay: FACS, CHO-K1-HuFAP cells.

Assay [7] deals with T3, human FAP on the surface of CHO-K1 …. Kind of assay: FACS, CHO-K1-HuFAP cells. The source holds these as a separate data set.
For assay [8] the target is unchanged. Kind of assay: FACS, CHO-K1-HuFAP cells. This is another data set of the same source.
The target of assay [9] is T2, human CD40 on the surface of HEK293 …. Kind of assay: FACS, HEK293-HuCD40 cells.
Assay [10] has the same target. Kind of assay: FACS, HEK293-HuCD40 cells. This is another data set of the same source.
Assay [11] has the same target. Kind of assay: FACS, HEK293-HuCD40 cells. The source holds these as a separate data set.
Assay [12] has as its target T1, human 4-1BB on the surface of HEK293 …. Kind of assay: FACS, HEK293-Hu4-1BB cells. Background: Flow cytometry measures light scatter and fluorescence of single cells or particles in a stream.
Assay [13] shares this target. Kind of assay: FACS, HEK293-Hu4-1BB cells. This is another data set of the same source.
For assay [14] the target is unchanged. Kind of assay: FACS, HEK293-Hu4-1BB cells. The source holds these as a separate data set.
The target of assay [15] is T4, h-FAP-His (recombinant human fibroblast activation protein, Leu26-Asp760, His-tagged) (human, UniProt Q12884 26-760).
T4 construct: range 26-760; Bought protein with a His tag; also called human FAP-His protein; His-tagged FAP recombinant protein
Kind of assay: ELISA, plate coated with human FAP-His.

For assay [16], the target named is T3, human FAP on the surface of CHO-K1 …. Kind of assay: FACS, CHO cell line overexpressing human FAP.
For assay [17], the target named is T4, h-FAP-His (recombinant human fibroblast …). Kind of assay: SPR, antibody captured by anti-human IgG (Fc) on CM5 chip, h-FAP-His as analyte.
Assay [18] concerns the target T1, human 4-1BB on the surface of HEK293 …. Kind of assay: cell-based or functional assay. This is another data set of the same source.
For assay [19] the target is unchanged. Kind of assay: cell-based or functional assay. The source holds these as a separate data set.
The target is the same in assay [20]. Kind of assay: FACS, HEK293-Hu4-1BB cells. This is another data set of the same source.
Assay [21] shares this target. Kind of assay: FACS, HEK293-Hu4-1BB cells. The source holds these as a separate data set.
Assay [22] shares this target. Kind of assay: FACS, HEK293-Hu4-1BB cells. This is another data set of the same source.
For assay [23], the target named is T2, human CD40 on the surface of HEK293 …. Kind of assay: cell-based or functional assay. The source holds these as a separate data set.
Assay [24] has the same target. Kind of assay: FACS, HEK293 cells transiently expressing human CD40.

Like-named read-outs stand apart in the source and are kept apart here.

B1: RO7122290 (FAP/4-1BBL bispecific antibody molecule, control) (bispecific antibody, human IgG1, kappa, L234A L235A)
heavy 1: not shown
heavy 2: EVQLLESGGGLVQPGGSLRLSCAASGFTFSSYAMSWVRQAPGKGLEWVSAIIGSGASTYYADSVKGRFTISRDNSKNTLYLQMNSLRAEDTAVYYCAKGWFGGFNYWGQGTLVTVSSASTKGPSVFPLAPSSKSTSGGTAALGCLVKDYFPEPVTVSWNSGALTSGVHTFPAVLQSSGLYSLSSVVTVPSSSLGTQTYICNVNHKPSNTKVDKKVEPKSCDKTHTCPPCPAPEAAGGPSVFLFPPKPKDTLMISRTPEVTCVVVDVSHEDPEVKFNWYVDGVEVHNAKTKPREEQYNSTYRVVSVLTVLHQDWLNGKEYKCKVSNKALGAPIEKTISKAKGQPREPQVCTLPPSRDELTKNQVSLSCAVKGFYPSDIAVEWESNGQPENNYKTTPPVLDSDGSFFLVSKLTVDKSRWQQGNVFSCSVMHEALHNHYTQKSLSLSPGK
light 1: not shown
light 2: EIVLTQSPGTLSLSPGERATLSCRASQSVTSSYLAWYQQKPGQAPRLLINVGSRRATGIPDRFSGSGSGTDFTLTISRLEPEDFAVYYCQQGIMLPPTFGQGTKVEIKRTVAAPSVFIFPPSDEQLKSGTASVVCLLNNFYPREAKVQWKVDNALQSGNSQESVTEQDSKDSTYSLSSTLTLSKADYEKHKVYACEVTHQGLSSPVTKSFNRGEC
As for B1, the “4-1BB/NF-κB luciferase reporter, CD40-crosslinked, Fold change in Emax” value in assay [1] is 2.3 fold; in assay [2], 1.22 fold; in assay [3] it was 1.77 fold. The “4-1BB/NF-κB luciferase reporter, FAP-crosslinked, EC50” value in assay [1] was 0.04 nM; in assay [2] it was 0.032 nM; in assay [3], 0.04 nM. The entries for the “4-1BB/NF-κB luciferase reporter, FAP-crosslinked, Fold change in Emax” value in assay [1], in [2] and in assay [3] were 9.95 fold, 9.38 fold and 15.4 fold, respectively. Besides, the results for the “4-1BB/NF-κB luciferase reporter, uncrosslinked, Fold change in Emax” value in assay [1], in assay [2] and in assay [3] were 5.97 fold, 3.6 fold and 6.03 fold, respectively. The “CD40/NF-κB reporter (HEK-Blue CD40L), 4-1BB-crosslinked, Fold change in Emax” value in [4] and in [5] was 1 fold in each case. Also, the “CD40/NF-κB reporter (HEK-Blue CD40L), FAP-crosslinked, Fold change in Emax” value in [4] and in [5] was 1 fold in each case. In addition, the “CD40/NF-κB reporter (HEK-Blue CD40L), uncrosslinked, Fold change in Emax” value was 0.98 fold in [4] and 0.99 fold in assay [5]. In addition, the 50% effective concentration (EC50) in [6] came out at 1.92 nM; in [7] it was 1.33 nM; in assay [8], 2.48 nM; in assay [13], 0.573 nM; in assay [14] it was 0.67 nM. Also, the Maximum fluorescence value turned out to be 112000 in assay [6]; 48400 in assay [7]; 44200 in [8]; 2330 in assay [9]; 89 in assay [10]; 106 in assay [11]. Moreover, the Maximum fluorescence value amounted to 10800 in assay [12], 8440 in [13] and 8200 in assay [14].

B2: anti-human FAP monoclonal antibody Ab10 (antibody, human IgG1, kappa, L234A L235A, V domains shown)
VH: QVQLQQSGVEVKKPGASVTVSCRASGYSFADHFIHWVRQAPGQGFQWMGWINPNRGVTHHAQDFQGRVAMTRDMSTDTVYMELTSLRSDDTAVYYCARDASLTARPYYFYGFDVWGQGTLVTVSS
VL: DIQMTQSPSSVSASVGDRVTITCRASQGISSWLAWYQQKPGKAPKLLIYAASSLQSGVPSRFSGSGSGTDFTLTISSLQPEDFATYYCQQANSFPPAFGQGTKVEIKR
notes: Full-length heavy and light chains with human constant regions; also called anti-FAP antibody Ab10
Regarding B2, the half-maximal effective concentration (EC50) in assay [15] came to 92 µg/mL. This molecule also yielded an EC50 in assay [16] of 0.000432 µg/mL. Further, in assay [17], the equilibrium dissociation constant (Kd) was 0.245 nM, the “Ratio of KD of 28H1 to KD of test antibody” value worked out at 5.3, the “Ratio of Kd of 28H1 to Kd of test antibody” value was 3.5 and the off-rate (koff) is 7.28e-05 s⁻¹. The kon in assay [17] came to 297000 M⁻¹ s⁻¹.

B3: Urelumab (positive control anti-4-1BB antibody) (antibody, V domains shown)
VH: QVQLQQWGAGLLKPSETLSLTCAVYGGSFSGYYWSWIRQSPEKGLEWIGEINHGGYVTYNPSLESRVTISVDTSKNQFSLKLSSVTAADTAVYYCARDYGPGNYDWYFDLWGRGTLVTVSS
VL: EIVLTQSPATLSLSPGERATLSCRASQSVSSYLAWYQQKPGQAPRLLIYDASNRATGIPARFSGSGSGTDFTLTISSLEPEDFAVYYCQQRSNWPPALTFGGGTKVEIK
For B3, in assay [18], the “4-1BB/NF-κB luciferase reporter, FcγRIIb crosslinking, EC50” value turned out to be 0.027 nM and the “4-1BB/NF-κB luciferase reporter, no FcγRIIb crosslinking, EC50” value turned out to be 2.19 nM. Also, in [19], the “Activation of HEK293-4-1BB cells (NF-κB reporter), Fold change in Emax” value is 1.7 fold and the “FcγRIIb-mediated activation of HEK293-4-1BB cells (NF-κB reporter), Fold change in Emax” value was found to be 2.61 fold. In assay [20], this molecule displayed a concentration giving a half-maximal response (EC50) of 1.18 nM and a Maximum fluorescence value of 1000. In addition, the EC50 in assay [21] amounted to 1.64 nM. In [22], a half-maximal effect (EC50) was put at 1.64 nM and the Maximum fluorescence value stood at 39700.

B4: anti-CD40 nanobody A297 linked to human IgG1-Fc (C220A, S267E, L328F) (Fc fusion)
chain: QVQLVESGGGMVEPGGSLRLSCAASGFTFSRYGMKWVRQAPGKGPEWVSTINSHGDTTYYADSVKGRFTISRDNAQNTVYLQMNSLKPEDTALYYCLRIDYSDYSSRGQGTQVTVSSEPKSADKTHTCPPCPAPELLGGPSVFLFPPKPKDTLMISRTPEVTCVVVDVEHEDPEVKFNWYVDGVEVHNAKTKPREEQYNSTYRVVSVLTVLHQDWLNGKEYKCKVSSKAFPAPIEKTISKAKGQPREPQVYTLPPSRDELTKNQVSLTCLVKGFYPSDIAVEWESNGQPENNYKTTPPVLDSDGSFFLYSKLTVDKSRWQQGNVFSCSVMHEALHNHYTQKSLSLSPGK
notes: VHH-Fc; no linker between VHH and Fc is stated
In the case of B4, the “FcγRIIb-mediated activation of HEK-Blue CD40L cells, EC50” value in assay [23] was 0.243 nM. The same molecule had a concentration giving a half-maximal response (EC50) in assay [24] of 1.12 nM.

B5: humanized anti-CD40 nanobody A297V3 linked to human IgG1-Fc (C220A, S267E, L328F) (Fc fusion)
chain: EVQLVESGGGLVQPGGSLRLSCAASGFTFSRYGMKWVRQAPGKGLEWVSTINSHGDTTYYADSVKGRFTISRDNAKNSLYLQMNSLRAEDTAVYYCLRIDYSDYSSRGQGTLVTVSSEPKSADKTHTCPPCPAPELLGGPSVFLFPPKPKDTLMISRTPEVTCVVVDVEHEDPEVKFNWYVDGVEVHNAKTKPREEQYNSTYRVVSVLTVLHQDWLNGKEYKCKVSSKAFPAPIEKTISKAKGQPREPQVYTLPPSRDELTKNQVSLTCLVKGFYPSDIAVEWESNGQPENNYKTTPPVLDSDGSFFLYSKLTVDKSRWQQGNVFSCSVMHEALHNHYTQKSLSLSPGK
notes: VHH-Fc
For B5, in assay [23], the “FcγRIIb-mediated activation of HEK-Blue CD40L cells, EC50” value stood at 0.006 nM. Further, in assay [24], the EC50 stood at 1.25 nM.
